# Columns and labels:
# Test in all cases: cell_activity
# [1] = test system: ProCreHRV (cyclized sCre with LEVLFQGP site) (Escherichia phage P1?); settings: 293T; without HRV 3C protease 5±1%; with HRVp 49±4%; FLEx.2 module
# [2] = test system: cysCreTEV (cyclized sCre with ENLYFQS site) (Escherichia phage P1?); settings: 293T; uncleaved (mock); with TEVp GFP MFI similar to non-cyclized sCre
# [3] = test system: ProCre-LRGAG (cyclized sCre with AVP site) (Escherichia phage P1?); settings: 293T; without AVP 4.5±0.6%; with AVP 40±1%; FLEx module with mCherry removed
# [4] = test system: sCre (truncated Cre, residues 19-343) (Escherichia phage P1?); settings: 293T; by GFP MFI; similar % GFP+ cells as full-length
substance,measurement,setting,value
FLEx DiO cassette with loxP and lox2272 pairs,activity,[1],5 % GFP+ cells
same,activity,[2],3.2 % GFP+ cells
same,activity,[3],4.5 % GFP+ cells
same,Cre recombination activity (GFP reporter MFI) (% of full-length Cre),[4],77

# — US20260002137
